The values below are quoted from earlier work in publication PMC5290461.

The data set concerns the target integrin beta1A cytoplasmic tail (Homo sapiens) (UniProt P05556). Briefly: NMR.
Chain of UniProt P05556 (P05556 752-798): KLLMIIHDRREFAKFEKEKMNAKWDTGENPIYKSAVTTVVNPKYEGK

The term Kd denotes the equilibrium constant for the complex coming apart. As for talin1 F3 (from UniProt P26039), the Kd was 491 µM.

In the case of talin2 F3 (from UniProt Q71LX4), the Kd is 652 µM.
